Patent US20250011410A1 (INVETX, published 2025)
Residue numbers refer to the chain shown, from its start. Numbers in names are those of the source.

B1: felinized clone 101 Fab-SASA variant K64D (VH) (Fab, V domains shown, not shown: small tags and cut ends)
VH: DVQLVESGGDLVKPGGSLRLTCVASGLSLTSSSMSWVRQAPGKGLQWVSTIYSNGGTYYTDSVDGRFTISKDNAENTLYLQMNNLKTEDTATYYCASIYYYDADYLHWYFDFWGQGALVTVSS
VL: EIQMTQSPTSLSASVGDRVTITCRASEGISNNLSWYQQTPGKAPKLLIYATSNLHSGVPSRFSGSGSGTDFTLTISSLQPEDFATYYCQQGYKWPLTFGGGTKLEITR
B2: felinized clone 101 Fab-SASA variant N53L (VL) (Fab, V domains shown, not shown: small tags and cut ends)
VH: B1 VH with D64K
VL: B1 VL with N53L
B3: felinized clone 101 Fab-SASA variant S28H (VH) (Fab, V domains shown, not shown: small tags and cut ends)
VH: B1 VH with S28H, D64K
VL: B1 VL
B4: felinized clone 101 Fab-SASA variant S53P (VH) (Fab, V domains shown, not shown: small tags and cut ends)
VH: B1 VH with S53P, D64K
VL: B1 VL
B5: felinized clone 101 Fab-SASA variant S97M (VH) (Fab, V domains shown, not shown: small tags and cut ends)
VH: B1 VH with D64K, S97M
VL: B1 VL
B6: felinized clone 101 Fab-SASA variant S30A (VL) (Fab, V domains shown, not shown: small tags and cut ends)
VH: B1 VH with D64K
VL: B1 VL with S30A
B7: felinized clone 101 Fab-SASA variant S30Q (VL) (Fab, V domains shown, not shown: small tags and cut ends)
VH: B1 VH with D64K
VL: B1 VL with S30Q
B8: felinized clone 101 Fab-SASA variant K64E (VH) (Fab, V domains shown, not shown: small tags and cut ends)
VH: B1 VH with D64E
VL: B1 VL
B9: felinized clone 101 Fab-SASA variant N53H (VL) (Fab, V domains shown, not shown: small tags and cut ends)
VH: B1 VH with D64K
VL: B1 VL with N53H
B10: felinized clone 101 Fab-SASA variant S97H (VH) (Fab, V domains shown, not shown: small tags and cut ends)
VH: B1 VH with D64K, S97H
VL: B1 VL
B11: felinized clone 101 Fab-SASA variant N53K (VL) (Fab, V domains shown, not shown: small tags and cut ends)
VH: B1 VH with D64K
VL: B1 VL with N53K
B12: felinized clone 101 Fab-SASA variant S97T (VH) (Fab, V domains shown, not shown: small tags and cut ends)
VH: B1 VH with D64K, S97T
VL: B1 VL
notes: Fab-SASA in conditioned medium
B13: felinized clone 101 Fab-SASA variant T30N (VH) (Fab, V domains shown, not shown: small tags and cut ends)
VH: B1 VH with T30N, D64K
VL: B1 VL
B14: felinized clone 101 Fab-SASA variant S31H (VH) (Fab, V domains shown, not shown: small tags and cut ends)
VH: B1 VH with S31H, D64K
VL: B1 VL
B15: felinized clone 101 Fab-SASA variant S56D (VL) (Fab, V domains shown, not shown: small tags and cut ends)
VH: B1 VH with D64K
VL: B1 VL with S56D
B16: felinized clone 101 Fab-SASA variant S30L (VL) (Fab, V domains shown, not shown: small tags and cut ends)
VH: B1 VH with D64K
VL: B1 VL with S30L
B17: felinized clone 101 Fab-SASA variant S62D (VH) (Fab, V domains shown, not shown: small tags and cut ends)
VH: B1 VH with S62D, D64K
VL: B1 VL
B18: felinized clone 101 Fab-SASA variant S34A (VL) (Fab, V domains shown, not shown: small tags and cut ends)
VH: B1 VH with D64K
VL: B1 VL with S34A
B19: felinized clone 101 Fab-SASA variant S30Y (VL) (Fab, V domains shown, not shown: small tags and cut ends)
VH: B1 VH with D64K
VL: B1 VL with S30Y
B20: felinized clone 101 Fab-SASA variant S30V (VL) (Fab, V domains shown, not shown: small tags and cut ends)
VH: B1 VH with D64K
VL: B1 VL with S30V
B21: felinized clone 101 Fab-SASA variant N53M (VL) (Fab, V domains shown, not shown: small tags and cut ends)
VH: B1 VH with D64K
VL: B1 VL with N53M
B22: felinized clone 101 Fab-SASA variant N31Q (VL) (Fab, V domains shown, not shown: small tags and cut ends)
VH: B1 VH with D64K
VL: B1 VL with N31Q
B23: felinized clone 101 Fab-SASA variant S30P (VL) (Fab, V domains shown, not shown: small tags and cut ends)
VH: B1 VH with D64K
VL: B1 VL with S30P
B24: felinized clone 101 Fab-SASA variant N53V (VL) (Fab, V domains shown, not shown: small tags and cut ends)
VH: B1 VH with D64K
VL: B1 VL with N53V
B25: felinized clone 101 Fab-SASA variant N53I (VL) (Fab, V domains shown, not shown: small tags and cut ends)
VH: B1 VH with D64K
VL: B1 VL with N53I
B26: felinized clone 101 Fab-SASA variant S56E (VL) (Fab, V domains shown, not shown: small tags and cut ends)
VH: B1 VH with D64K
VL: B1 VL with S56E
B27: felinized clone 101 Fab-SASA variant S56T (VL) (Fab, V domains shown, not shown: small tags and cut ends)
VH: B1 VH with D64K
VL: B1 VL with S56T
B28: felinized clone 101 Fab-SASA variant S97Q (VH) (Fab, V domains shown, not shown: small tags and cut ends)
VH: B1 VH with D64K, S97Q
VL: B1 VL
notes: as for B12
B29: felinized clone 101 Fab-SASA variant T30R (VH) (Fab, V domains shown, not shown: small tags and cut ends)
VH: B1 VH with T30R, D64K
VL: B1 VL
B30: felinized clone 101 Fab-SASA variant R24F (VL) (Fab, V domains shown, not shown: small tags and cut ends)
VH: B1 VH with D64K
VL: B1 VL with R24F
B31: felinized clone 101 Fab-SASA variant S35V (VH) (Fab, V domains shown, not shown: small tags and cut ends)
VH: B1 VH with S35V, D64K
VL: B1 VL
B32: felinized clone 101 Fab-SASA variant L54H (VL) (Fab, V domains shown, not shown: small tags and cut ends)
VH: B1 VH with D64K
VL: B1 VL with L54H
B33: felinized clone 101 Fab-SASA variant S34G (VL) (Fab, V domains shown, not shown: small tags and cut ends)
VH: B1 VH with D64K
VL: B1 VL with S34G
B34: felinized clone 101 Fab-SASA variant S56N (VL) (Fab, V domains shown, not shown: small tags and cut ends)
VH: B1 VH with D64K
VL: B1 VL with S56N

Molecular target: T1, canine NGF tagged at the C-terminus with the Flag tag (canine, UniProt A0A8I3PYI3 122-241)
T1 construct: mature; Expressed with baculovirus technology; also called feline NGF (processed form identical)
T1 sequence (A0A8I3PYI3 entry or part of it): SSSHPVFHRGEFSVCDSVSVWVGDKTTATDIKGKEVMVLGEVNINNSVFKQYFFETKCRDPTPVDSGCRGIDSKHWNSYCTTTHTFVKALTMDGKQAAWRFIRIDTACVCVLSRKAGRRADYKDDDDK
Experiment: SPR off-rate screen, Fab-SASA on BSA chip

| Binder | Kd [nM] | Ratio WT-kd/clone-kd | koff [s⁻¹] | kon [M⁻¹ s⁻¹] |
| --- | --- | --- | --- | --- |
| B1 | 1.63 | 1.7 | 0.000554 | 340000 |
| B2 | 2.08 | 1.41 | 0.000667 | 321000 |
| B3 | 2.55 | 1.18 | 0.000802 | 315000 |
| B4 | 2.15 | 1.36 | 0.000695 | 323000 |
| B5 | 1.75 | 2.02 | 0.000466 | 266000 |
| B6 | 1.05 | 3.23 | 0.000292 | 277000 |
| B7 | 1.25 | 2.91 | 0.000324 | 259000 |
| B8 | 2.42 | 1.98 | 0.000476 | 196000 |
| B9 | 1.95 | 1.5 | 0.000627 | 322000 |
| B10 | 1.79 | 1.77 | 0.000533 | 297000 |
| B11 | 2.04 | 1.58 | 0.000596 | 292000 |
| B12 | 1.88 | 1.32 | 0.000716 | 380000 |
| B13 | 2.12 | 1.34 | 0.000704 | 333000 |
| B14 | 1.98 | 1.54 | 0.000612 | 310000 |
| B15 | 2.03 | 1.25 | 0.000755 | 372000 |
| B16 | 1.87 | 1.86 | 0.000507 | 270000 |
| B17 | 1.86 | 1.68 | 0.00056 | 301000 |

| Binder | Kd [nM] | Ratio WT-kd/clone-kd | koff [s⁻¹] | kon [M⁻¹ s⁻¹] |
| --- | --- | --- | --- | --- |
| B18 | 1.74 | 1.2 | 0.000783 | 450000 |
| B19 | 2.2 | 1.21 | 0.000782 | 355000 |
| B20 | 1.68 | 1.95 | 0.000483 | 287000 |
| B21 | 1.87 | 1.46 | 0.000648 | 346000 |
| B22 | 1.47 | 1.96 | 0.00048 | 327000 |
| B23 | 2.56 | 1.41 | 0.00067 | 262000 |
| B24 | 1.42 | 2.32 | 0.000407 | 288000 |
| B25 | 1.41 | 2.42 | 0.000389 | 276000 |
| B26 | 2.19 | 1.17 | 0.000809 | 370000 |
| B27 | 1.99 | 1.32 | 0.000714 | 358000 |
| B28 | 1.36 | 2.34 | 0.000403 | 297000 |
| B29 | 2.05 | 1.29 | 0.00073 | 357000 |
| B30 | 2.28 | 1.44 | 0.000655 | 287000 |
| B31 | 1.17 | 2.62 | 0.00036 | 309000 |
| B32 | 1.65 | 1.68 | 0.00056 | 340000 |
| B33 | 1.13 | 1.83 | 0.000514 | 456000 |
| B34 | 2.64 | 1.04 | 0.000903 | 341000 |
